Test [1] concerns the target T1, human LAG3 expressed on cells (human, UniProt P18627 23-525).
T1 sequence (looked up): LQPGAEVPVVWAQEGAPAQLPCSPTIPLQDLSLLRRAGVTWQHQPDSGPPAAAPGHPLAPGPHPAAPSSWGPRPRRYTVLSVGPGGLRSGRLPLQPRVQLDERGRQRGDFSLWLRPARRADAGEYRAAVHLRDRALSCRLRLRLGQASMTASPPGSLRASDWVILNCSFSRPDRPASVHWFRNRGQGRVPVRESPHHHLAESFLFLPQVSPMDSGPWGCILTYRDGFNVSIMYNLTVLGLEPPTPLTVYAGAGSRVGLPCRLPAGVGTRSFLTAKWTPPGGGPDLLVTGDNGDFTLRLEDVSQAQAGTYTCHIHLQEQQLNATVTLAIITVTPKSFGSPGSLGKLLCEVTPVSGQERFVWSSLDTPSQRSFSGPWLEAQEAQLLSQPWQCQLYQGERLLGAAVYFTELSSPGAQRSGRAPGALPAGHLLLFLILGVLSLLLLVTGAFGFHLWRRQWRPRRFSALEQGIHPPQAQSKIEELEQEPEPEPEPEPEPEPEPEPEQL
As to the kind of experiment: cell-based or functional assay.

Test [2] concerns the target T1, human LAG3 expressed on cells. As to the kind of experiment: FACS, 293T-hLAG3 cells. The procedure:
5) The prepared antibody samples were added to the 96-well plate according to the platemap, the cells were resuspended and incubate at 4° C. for 1 hour.
7) 3% BSA/1xPBS was used to dilute Goat polyclonal Secondary Antibody to Human IgG-Fc (DyLight® 650) to the desired concentration (1:200), in which the cells were resuspended and incubated at 4° C. for 1 hour.
9) The cells were resuspended in 200 µl of 3% BSA/1xPBS, and performed flow cytometric testing by Shsti Biotech Inc.
For orientation: In flow cytometry, cells or beads pass a laser one at a time.

Test [3] addresses T2, LAG3 Protein, Human, Recombinant (His Tag) (Sino Biological Catalog No. 16498-H08H) (human, UniProt P18627 23-450).
T2 construct: Bought protein; also called hLAG3-His; LAG3-His; not shown: His tag
T2 sequence (looked up): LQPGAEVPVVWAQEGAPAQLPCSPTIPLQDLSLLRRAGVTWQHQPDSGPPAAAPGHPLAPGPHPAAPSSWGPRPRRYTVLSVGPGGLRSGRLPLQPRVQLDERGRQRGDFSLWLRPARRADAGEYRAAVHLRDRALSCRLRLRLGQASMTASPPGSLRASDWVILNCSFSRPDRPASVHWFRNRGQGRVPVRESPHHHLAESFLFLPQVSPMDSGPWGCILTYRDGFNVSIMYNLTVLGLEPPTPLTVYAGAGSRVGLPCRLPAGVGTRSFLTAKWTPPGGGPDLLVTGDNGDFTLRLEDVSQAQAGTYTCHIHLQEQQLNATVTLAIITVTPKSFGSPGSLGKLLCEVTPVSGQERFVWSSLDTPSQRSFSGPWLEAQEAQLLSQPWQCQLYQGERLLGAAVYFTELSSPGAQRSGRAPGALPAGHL
As to the kind of experiment: ELISA, coated hLAG3-His. The method, then: Plates were coated with 100 µL per well of Coating Solution, and then covered, and incubated overnight (12-18 hours) at 2-8° C. The wells were aspirated and washed 1 time with >200 µL of Wash buffer per well, inverted and tapped on absorbent paper to remove excess liquid. The plates were blocked with 200 µL per well with Blocking buffer (1×PBS+4% milk) for 1 hour at room temperature, aspirated, inverted, and tapped on absorbent paper to remove excess liquid. Standards and sample dilutions were prepared in Blocking buffer. 100 µL of standards (in duplicate) and samples were pipetted into designated wells. After incubation for 1 hour at room temperature with gentle continual shaking (~500 rpm), the wells were aspirate and washed 3 times with >200 µL of Wash buffer per well, inverted and tapped on absorbent paper to remove excess liquid.
The primary antibody solution was diluted with Blocking buffer. See Table 14 for recommended primary antibody dilution. 100 µL of the primary antibody solution was added into each well and incubated for 2 hours at room temperature with gentle continual shaking (~500 rpm). The wells were aspirated and washed 3 times with >200 µL of Wash buffer per well, inverted and tapped on absorbent paper to remove excess liquid. The working solution of secondary antibody was made with Blocking buffer by diluting the secondary antibody by 2,500 times. 100 µL of secondary antibody working solution was added into each well and incubated for 30 minutes at room temperature. The wells were aspirated and washed 5 times with >200 µL of Wash buffer per well, inverted and tapped on absorbent paper to remove excess liquid. 100 µL of TMB substrate solution (Biopanda, TMB-S-004) was added to each well and incubated for 30 minutes at room temperature. 100 µL of Stop solution (Solarbio, C1058) was added to each well.
(In general: ELISA stands for enzyme-linked immunosorbent assay.)

Test [4] deals with T1, human LAG3 expressed on cells. Description: cell ELISA, 293T-hLAG3 cells. The method, then:
Each well was treated with stimulants. The cells were then fixed and blocked with Blocking buffer. The Primary antibodies were added. The wells were washed and a HRP-conjugated secondary antibody was added. The wells were washed with 1x PBS and a solution containing TMB (Biopanda, TMB-S-004) was added. The TMB reacted with HRP to change the color thereof from colorless to blue. An acid stop solution (Solarbio, C1058) was then added to stop the reaction and change the blue color to yellow.
Materials are listed below: [0072] […] 2) Blocking buffer: 1×PBS+3% BSA (Sigma, B2064); [0074] […] [0075] 4) Secondary antibody: Goat anti-human IgG1 Fc antibody, HRP (1:2500, invitrogen, A18817). [0076]

B1: sdAb No. 25 (VHH)
VHH: QLQLVESGGGLVQAGGSLRLSCAASGSIESFSFMGWYRQAPGKQRELVAGFTGAASLSFSTYTDAVKGRFTISRDNAKNTVYLQMNSLKPEDTAVYFCNVDPWSQSWPGRYWGQGTQVTVSS
notes: Fc of the tested form not described; also called sdAb 25; sdAb #25; not shown: Fc part implied by anti-human Fc capture and anti-human IgG Fc detection
A word on the EC50: it is the concentration needed to bring the measured effect to its halfway point. As to B1, in test [1], the “IL-2, % of BMS, at 0.005080526 ug/mL” value amounted to 3.24%; the “IL-2, % of BMS, at 0.015241579 ug/mL” value is -0.59%; the “IL-2, % of BMS, at 0.045724737 ug/mL” value was 8.03%; the “IL-2, % of BMS, at 0.137174211 ug/mL” value is 2.39%. Further, in test [1], the “IL-2, % of BMS, at 0.411522634 ug/mL” value was determined as 9.2%; the “IL-2, % of BMS, at 1.234567901 ug/mL” value amounted to 25.1%; the “IL-2, % of BMS, at 3.703703704 ug/mL” value came out at 30.6%; the “IL-2, % of BMS, at 11.11111111 ug/mL” value is 34.1%. Further, in test [1], the “IL-2, % of BMS, at 33.33333333 ug/mL” value was 39.8% and the “IL-2, % of BMS, at 100 ug/mL” value stood at 53.7%. In addition, in test [2], the EC50 amounted to 1.48 nM, the “FACS signal at 0.061 nM” value was determined as 99.2, the “FACS signal at 0.1829 nM” value is 247 and the “FACS signal at 0.5487 nM” value turned out to be 618. In test [2], the “FACS signal at 1.6461 nM” value is 1410, the “FACS signal at 4.9383 nM” value came out at 2000, the “FACS signal at 14.815 nM” value is 2280 and the “FACS signal at 44.445 nM” value is 2540. In test [2], the “FACS signal at 133.335 nM” value was found to be 2580.

B2: sdAb No. 17 (VHH)
VHH: QLQLVESGGGLVQPGGSLRLSCAASGLTLDGYAIGWFRQAPGKEREGLACISGSDGSTHYLDSVKGRFTISRDNGKNTMALQMNSLQFGDTAIYYCAARRGSCSGSWTYWGQGTQVTVSS
notes: Fc of the tested form not described; also called sdAb 17; not shown: Fc part implied by anti-human Fc capture and anti-human IgG1 Fc detection
In the case of B2, the EC50 in test [3] is 2.17 nM. In test [4], the response was half-maximal at 0.904 nM (EC50), the “OD450 at 0.0045725 ug/ml” value was 0.104, the “OD450 at 0.0137174 ug/ml” value is 0.259 and the “OD450 at 0.0411523 ug/ml” value came to 0.543. In addition, in test [4], the “OD450 at 0.1234568 ug/ml” value was 1.01, the “OD450 at 0.3703704 ug/ml” value came to 1.3, the “OD450 at 1.111111 ug/ml” value worked out at 1.42 and the “OD450 at 3.333333 ug/ml” value was 1.44. For the same molecule, the “OD450 at 10 ug/ml” value in test [4] was 1.48.

B3: sdAb No. 27 (VHH)
VHH: QVQLVESGGGLVQPGGSLRLSCAASGFTLDYYAIGWFRQAPGKEREGVSCIRSSDGSTYYADSVKGRFTISSDNTKNTVYLQMNSLKPEDTAVYYCATDRYSDCRGPYENWGQGTQVTVSS
notes: Fc of the tested form not described; also called sdAb 27; not shown: Fc part implied by anti-human Fc capture and anti-human IgG Fc detection
As to B3, in test [1], the “IL-2, % of BMS, at 0.005080526 ug/mL” value is 5.57%; the “IL-2, % of BMS, at 0.015241579 ug/mL” value is 13.4%; the “IL-2, % of BMS, at 0.045724737 ug/mL” value turned out to be 12.1%; the “IL-2, % of BMS, at 0.137174211 ug/mL” value is 18%. Further, in test [1], the “IL-2, % of BMS, at 0.411522634 ug/mL” value stood at 27.3%; the “IL-2, % of BMS, at 1.234567901 ug/mL” value turned out to be 36.5%; the “IL-2, % of BMS, at 3.703703704 ug/mL” value stood at 43.4%; the “IL-2, % of BMS, at 11.11111111 ug/mL” value came out at 50%. In test [1], the “IL-2, % of BMS, at 33.33333333 ug/mL” value stood at 52.9% and the “IL-2, % of BMS, at 100 ug/mL” value was 52.8%. Further, in test [2], it took 1.77 nM to reach a half-maximal effect (EC50), the “FACS signal at 0.061 nM” value turned out to be 163, the “FACS signal at 0.1829 nM” value was 393 and the “FACS signal at 0.5487 nM” value was 1010. In test [2], the “FACS signal at 1.6461 nM” value turned out to be 2240, the “FACS signal at 4.9383 nM” value was determined as 3570, the “FACS signal at 14.815 nM” value came to 4130 and the “FACS signal at 44.445 nM” value turned out to be 4490. In addition, the “FACS signal at 133.335 nM” value in test [2] turned out to be 4630. In test [3], the EC50 turned out to be 3.14 nM, the “OD450 at 0.004572 ug/ml” value was 0.039, the “OD450 at 0.013717 ug/ml” value was 0.042 and the “OD450 at 0.041152 ug/ml” value is 0.063. In addition, in test [3], the “OD450 at 0.123457 ug/ml” value was 0.331, the “OD450 at 0.37037 ug/ml” value was 1.5, the “OD450 at 1.111111 ug/ml” value came to 1.84 and the “OD450 at 3.333333 ug/ml” value amounted to 1.77. The “OD450 at 10 ug/ml” value in test [3] was found to be 2.15. Also, in test [4], the EC50 is 1.18 nM, the “OD450 at 0.0045725 ug/ml” value was determined as 0.097, the “OD450 at 0.0137174 ug/ml” value stood at 0.198 and the “OD450 at 0.0411523 ug/ml” value was 0.408. Further, in test [4], the “OD450 at 0.1234568 ug/ml” value amounted to 0.79, the “OD450 at 0.3703704 ug/ml” value amounted to 1.13, the “OD450 at 1.111111 ug/ml” value is 1.28 and the “OD450 at 3.333333 ug/ml” value turned out to be 1.21. The “OD450 at 10 ug/ml” value in test [4] was 1.26.

The values above are taken from US20230303690A1 (published 2023).
